Results: patent US20200199213A1 (Eli Lilly, published 2020)
Substitutions are numbered along the chain they refer to. Numbers in names are those of the source. One block for each binder: values may come before it.

Tests used:
human ANGPTL8 [1] = molecular target: T1, human ANGPTL8 (human, UniProt Q6UXH0 22-198); assay: ELISA; Ab captured by anti-human Fc; biotinylated antigen at 0.412 nM
T1 construct: Biotinylated in the ELISA assays; also called hANGPTL8; free ANGPTL8
T1 sequence: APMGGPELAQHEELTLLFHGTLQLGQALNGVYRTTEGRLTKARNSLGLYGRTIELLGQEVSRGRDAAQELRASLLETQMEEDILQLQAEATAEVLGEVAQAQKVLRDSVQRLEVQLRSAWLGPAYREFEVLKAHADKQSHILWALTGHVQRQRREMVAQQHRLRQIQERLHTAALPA
Procedure: (§1) ELISA Assay: Ab binding selectivity to either the ANGPTL3/8 complex, free ANGPTL3 or free ANGPTL8 is verified using standard ELISA assays. […] Ab from CHO supernatants after expression in CHO cells is then captured to the assay plate and results is an Ab concentration of 2 μg/ml. Biotinylated antigen (ANGPTL3, ANGPTL8 or ANGPTL3/8 complex) is added at varying concentrations by serial dilution to allow for Ab/antigen binding. Ab/antigen complexes are detected after the addition of alkaline phosphatase-conjugated neutravidin, and alkaline phosphatase substrate, and subsequent measurement of the optical density at 560 nm.

human ANGPTL8 [2] = molecular target: T1, human ANGPTL8; assay: ELISA; Ab captured by anti-human Fc; biotinylated antigen at 100 nM
Procedure: as §1

human ANGPTL3/8 complex [3] = molecular target: T2, human ANGPTL3/8 complex (human, UniProt Q9Y5C1 17-460; Q6UXH0 22-198, limits assumed); assay: as above
T2 construct: also called hANGPTL3/8 complex; ANGTPL3/8 complex
T2 sequence 1: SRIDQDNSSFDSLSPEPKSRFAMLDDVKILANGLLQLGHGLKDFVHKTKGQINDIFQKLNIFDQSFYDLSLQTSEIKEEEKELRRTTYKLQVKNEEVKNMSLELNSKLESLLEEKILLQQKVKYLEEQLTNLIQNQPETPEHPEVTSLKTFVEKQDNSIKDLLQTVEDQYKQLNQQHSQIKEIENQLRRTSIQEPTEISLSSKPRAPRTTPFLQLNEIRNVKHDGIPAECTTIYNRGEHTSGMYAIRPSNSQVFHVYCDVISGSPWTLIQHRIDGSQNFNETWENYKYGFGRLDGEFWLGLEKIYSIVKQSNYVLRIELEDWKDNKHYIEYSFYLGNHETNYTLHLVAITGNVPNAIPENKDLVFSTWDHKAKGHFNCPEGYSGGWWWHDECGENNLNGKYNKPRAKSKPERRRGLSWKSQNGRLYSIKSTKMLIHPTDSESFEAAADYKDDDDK
T2 sequence 2: T1 sequence
Procedure: as §1

human ANGPTL3 [4] = molecular target: T3, human ANGPTL3 (human, UniProt Q9Y5C1 17-460); assay: as above
T3 construct: Biotinylated in the ELISA assays; also called hANGPTL3; free ANGPTL3
T3 sequence: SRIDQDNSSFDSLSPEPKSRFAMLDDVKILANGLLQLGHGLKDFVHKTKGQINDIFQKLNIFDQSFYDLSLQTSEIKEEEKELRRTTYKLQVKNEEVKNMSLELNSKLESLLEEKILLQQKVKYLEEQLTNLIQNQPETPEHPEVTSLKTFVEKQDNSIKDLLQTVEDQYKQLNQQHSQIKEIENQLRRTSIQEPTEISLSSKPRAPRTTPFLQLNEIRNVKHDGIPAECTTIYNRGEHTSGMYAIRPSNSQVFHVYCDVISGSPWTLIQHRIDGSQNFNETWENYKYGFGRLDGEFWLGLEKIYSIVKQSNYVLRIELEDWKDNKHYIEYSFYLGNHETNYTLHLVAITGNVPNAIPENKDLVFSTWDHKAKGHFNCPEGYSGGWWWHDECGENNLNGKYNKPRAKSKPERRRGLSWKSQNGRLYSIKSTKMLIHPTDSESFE
Procedure: as §1

human ANGPTL8 [5] = molecular target: T1, human ANGPTL8; assay: ELISA; Ab captured by anti-human Fc; biotinylated antigen at 0.046 nM
Procedure: as §1

human ANGPTL3/8 complex [6] = molecular target: T2, human ANGPTL3/8 complex; assay: as above
Procedure: as §1

human ANGPTL3 [7] = molecular target: T3, human ANGPTL3; assay: as above
Procedure: as §1

human ANGPTL8 [8] = molecular target: T1, human ANGPTL8; assay: ELISA; Ab captured by anti-human Fc; biotinylated antigen at 0.137 nM
Procedure: as §1

human ANGPTL3/8 complex [9] = molecular target: T2, human ANGPTL3/8 complex; assay: as above
Procedure: as §1

human ANGPTL3 [10] = molecular target: T3, human ANGPTL3; assay: as above
Procedure: as §1

human ANGPTL8 [11] = molecular target: T1, human ANGPTL8; assay: ELISA; Ab captured by anti-human Fc; biotinylated antigen at 33.3 nM
Procedure: as §1

human ANGPTL3/8 complex [12] = molecular target: T2, human ANGPTL3/8 complex; assay: as above
Procedure: as §1

human ANGPTL3 [13] = molecular target: T3, human ANGPTL3; assay: as above
Procedure: as §1

human ANGPTL8 [14] = molecular target: T1, human ANGPTL8; assay: ELISA; Ab captured by anti-human Fc; biotinylated antigen at 1.23 nM
Procedure: as §1

human ANGPTL3/8 complex [15] = molecular target: T2, human ANGPTL3/8 complex; assay: as above
Procedure: as §1

human ANGPTL3 [16] = molecular target: T3, human ANGPTL3; assay: as above
Procedure: as §1

OD at 560 nm (human ANGPTL8 [1]): 0.046 OD 560 nm
OD at 560 nm (human ANGPTL8 [2]): 0.072 OD 560 nm
OD at 560 nm (human ANGPTL3/8 complex [3]): 2.71 OD 560 nm
OD at 560 nm (human ANGPTL3 [4]): 0.081 OD 560 nm
OD at 560 nm (human ANGPTL8 [5]): 0.051 OD 560 nm
OD at 560 nm (human ANGPTL3/8 complex [6]): 0.078 OD 560 nm
OD at 560 nm (human ANGPTL3 [7]): 0.06 OD 560 nm
OD at 560 nm (human ANGPTL8 [8]): 0.047 OD 560 nm
OD at 560 nm (human ANGPTL3/8 complex [9]): 0.11 OD 560 nm
OD at 560 nm (human ANGPTL3 [10]): 0.048 OD 560 nm
OD at 560 nm (human ANGPTL8 [11]): 0.05 OD 560 nm
OD at 560 nm (human ANGPTL3/8 complex [12]): 2.41 OD 560 nm
OD at 560 nm (human ANGPTL3 [13]): 0.052 OD 560 nm
OD at 560 nm (human ANGPTL8 [14]): 0.043 OD 560 nm
OD at 560 nm (human ANGPTL3/8 complex [15]): 0.51 OD 560 nm
OD at 560 nm (human ANGPTL3 [16]): 0.043 OD 560 nm
B1: anti-ANGPTL3/8 complex Ab having a LC of SEQ ID NO:5 and a HC of SEQ ID NO:6 (antibody, human IgG4 S228P, kappa, F234A L235A, V domains shown)
VH: QVTLKESGPTLVKPTQTLTLTCTFSGFSLSISGVGVGWIRQPPGKALEWLALIYRNDDKRYSPSLKSRLTITKDTSKNQVVLTLTNMDPVDTATYYCARTYSSGWYGNWFDPWGQGTLVTVSS
VL: DIVMTQTPLSLPVTPGEPASISCRSSQSLLDSDDGNTYLDWYLQKPGQSPQLLIYMLSYRASGVPDRFSGSGSGTDFTLKISRVEAEDVGIYYCMQRIEFPLTFGGGTKVEIKR
notes: In the ELISA assays tested as IgG from CHO supernatants; also called the Ab

OD at 560 nm (human ANGPTL8 [1]): 0.047 OD 560 nm
OD at 560 nm (human ANGPTL8 [2]): 0.078 OD 560 nm
OD at 560 nm (human ANGPTL3/8 complex [3]): 2.39 OD 560 nm
OD at 560 nm (human ANGPTL3 [4]): 0.082 OD 560 nm
OD at 560 nm (human ANGPTL8 [5]): 0.074 OD 560 nm
OD at 560 nm (human ANGPTL3/8 complex [6]): 0.111 OD 560 nm
OD at 560 nm (human ANGPTL3 [7]): 0.062 OD 560 nm
OD at 560 nm (human ANGPTL8 [8]): 0.053 OD 560 nm
OD at 560 nm (human ANGPTL3/8 complex [9]): 0.101 OD 560 nm
OD at 560 nm (human ANGPTL3 [10]): 0.062 OD 560 nm
OD at 560 nm (human ANGPTL8 [11]): 0.049 OD 560 nm
OD at 560 nm (human ANGPTL3/8 complex [12]): 2.18 OD 560 nm
OD at 560 nm (human ANGPTL3 [13]): 0.067 OD 560 nm
OD at 560 nm (human ANGPTL8 [14]): 0.049 OD 560 nm
OD at 560 nm (human ANGPTL3/8 complex [15]): 0.491 OD 560 nm
OD at 560 nm (human ANGPTL3 [16]): 0.057 OD 560 nm
B2: Ab with LC variant having a D33A mutation (SEQ ID NO:22) and a HC of SEQ ID NO:6 (antibody, human IgG4 S228P, kappa, F234A L235A, V domains shown)
VH: B1 VH
VL: B1 VL with D33A
notes: also called D33A Variant Ab; D33A Ab

OD at 560 nm (human ANGPTL8 [1]): 0.062 OD 560 nm
OD at 560 nm (human ANGPTL8 [2]): 0.098 OD 560 nm
OD at 560 nm (human ANGPTL3/8 complex [3]): 2.47 OD 560 nm
OD at 560 nm (human ANGPTL3 [4]): 0.084 OD 560 nm
OD at 560 nm (human ANGPTL8 [5]): 0.096 OD 560 nm
OD at 560 nm (human ANGPTL3/8 complex [6]): 0.149 OD 560 nm
OD at 560 nm (human ANGPTL3 [7]): 0.06 OD 560 nm
OD at 560 nm (human ANGPTL8 [8]): 0.08 OD 560 nm
OD at 560 nm (human ANGPTL3/8 complex [9]): 0.137 OD 560 nm
OD at 560 nm (human ANGPTL3 [10]): 0.057 OD 560 nm
OD at 560 nm (human ANGPTL8 [11]): 0.063 OD 560 nm
OD at 560 nm (human ANGPTL3/8 complex [12]): 2.23 OD 560 nm
OD at 560 nm (human ANGPTL3 [13]): 0.069 OD 560 nm
OD at 560 nm (human ANGPTL8 [14]): 0.058 OD 560 nm
OD at 560 nm (human ANGPTL3/8 complex [15]): 0.575 OD 560 nm
OD at 560 nm (human ANGPTL3 [16]): 0.059 OD 560 nm
B3: Ab with LC variant having a D31S mutation (SEQ ID NO:21) and a HC of SEQ ID NO:6 (antibody, human IgG4 S228P, kappa, F234A L235A, V domains shown)
VH: B1 VH
VL: B1 VL with D31S
notes: also called D31S Variant Ab; D31S Ab

OD at 560 nm (human ANGPTL8 [1]): 0.062 OD 560 nm
OD at 560 nm (human ANGPTL8 [2]): 0.098 OD 560 nm
OD at 560 nm (human ANGPTL3/8 complex [3]): 2.47 OD 560 nm
OD at 560 nm (human ANGPTL3 [4]): 0.084 OD 560 nm
OD at 560 nm (human ANGPTL8 [5]): 0.096 OD 560 nm
OD at 560 nm (human ANGPTL3/8 complex [6]): 0.149 OD 560 nm
OD at 560 nm (human ANGPTL3 [7]): 0.06 OD 560 nm
OD at 560 nm (human ANGPTL8 [8]): 0.08 OD 560 nm
OD at 560 nm (human ANGPTL3/8 complex [9]): 0.137 OD 560 nm
OD at 560 nm (human ANGPTL3 [10]): 0.057 OD 560 nm
OD at 560 nm (human ANGPTL8 [11]): 0.063 OD 560 nm
OD at 560 nm (human ANGPTL3/8 complex [12]): 2.23 OD 560 nm
OD at 560 nm (human ANGPTL3 [13]): 0.069 OD 560 nm
OD at 560 nm (human ANGPTL8 [14]): 0.058 OD 560 nm
OD at 560 nm (human ANGPTL3/8 complex [15]): 0.575 OD 560 nm
OD at 560 nm (human ANGPTL3 [16]): 0.059 OD 560 nm
B4: Ab with LC variant having a E99Q mutation (SEQ ID NO:25) and a HC of SEQ ID NO:6 (antibody, human IgG4 S228P, kappa, F234A L235A, V domains shown)
VH: B1 VH
VL: B1 VL with E99Q
notes: also called E99Q Variant Ab; E99Q Ab
